These results are taken from the RNAGym collection of RNA variant scans (doi:10.7554/elife.80360).

To fix the notation:
B1: CPEB3 Ribozyme (parent)
chain: GGGGGCCACAGCAGAAGCGUUCACGUCGCGGCCCCUGUCAGAUUCUGGUGAAUCUGCGAAUUCUGCUGU

In this series the parent is B1. The experiment in a line: self-cleavage, relative activity (ratio to wild type); higher = more cleavage; co-transcriptional.
With GGGGGCCACAGCAGAAGCGUUCACGUCGCGGCCCCCGUCAGAUUCUGGUGAAUCGGCGAAUUCUGCUGU [U36C U55G], the self-cleavage was 0.454.

On to GGGGGCCACAGCAGAAGCGUUCACGUCGCGGCCCCCGUCAGAUUCUGGUGAAUCCGCGAAUUCUGCUGU [U36C U55C], for which the self-cleavage was found to be 0.74.

With GGGGGCCACAGCAGAAGCGUUCACGUCGCGGCCCCCGUCAGAUUCUGGUGAAUCAGCGAAUUCUGCUGU [U36C U55A], the self-cleavage amounted to 0.888.

GGGGGCCACAGCAGAAGCGUUCACGUCGCGGCCCCGGUCAGAUUCUGGUGCAUCUGCGAAUUCUGCUGU [U36G A51C]: the self-cleavage was determined as 0.25.

As to GGGGGCCACAGCAGAAGCGUUCACGUCGCGGCCCCGGUCAGAUUCUGGUGGAUCUGCGAAUUCUGCUGU [U36G A51G], the self-cleavage amounted to 0.179.

As for GGGGGCCACAGCAGAAGCGUUCACGUCGCGGCCCCGGUCAGAUUCUGGUGUAUCUGCGAAUUCUGCUGU [U36G A51U], the self-cleavage was found to be 0.117.

Consider GGGGGCCACAGCAGAAGCGUUCACGUCGCGGCCCCCGUCAGAUUCUGGUGAAUCUGCGAAUUCUUCUGU [U36C G65U], for which the self-cleavage is 0.485.

In the case of GGGGGCCACAGCAGAAGCGUUCACGUCGCGGCCCCCGUCAGAUUCGGGUGAAUCUGCGAAUUCUGCUGU [U36C U46G], the self-cleavage was 0.93.

As to GGGGGCCACAGCAGAAGCGUUCACGUCGCGGCCCCCGUCAGAGUCUGGUGAAUCUGCGAAUUCUGCUGU [U36C U43G], the self-cleavage came out at 0.662.

In the case of GGGGGCCACAGCAGAAGCGUUCACGUCGCGGCCCCGGUCAGAUUCUGGUGAAUCUCCGAAUUCUGCUGU [U36G G56C], the self-cleavage was 0.284.

Turning to GGGGGCCACAGCAGAAGCGUUCACGUCGCGGCCCCGGUCAGAUUCUGGUGAAUCUGCGAAUUCUGCUGU [U36G], the self-cleavage is 0.239.

GGGGGCCACAGCAGAAGCGUUCACGUCGCGGCCCCCGUCAGAUUCUGGUGAAUCUGCGAAUUCUGCUGU [U36C]: the self-cleavage was found to be 0.939.

As for GGGGGCCACAGCAGAAGCGUUCACGUCGCGGCCCCGGACAGAUUCUGGUGAAUCUGCGAAUUCUGCUGU [U36G U38A], the self-cleavage is 0.214.

As to GGGGGCCACAGCAGAAGCGUUCACGUCGCGGCCCCGGUCAGAUUCUGGUGAAUCUGCUAAUUCUGCUGU [U36G G58U], the self-cleavage turned out to be 0.193.

In the case of GGGGGCCACAGCAGAAGCGUUCACGUCGCGGCCCCCAUCAGAUUCUGGUGAAUCUGCGAAUUCUGCUGU [U36C G37A], the self-cleavage came out at 0.335.

Turning to GGGGGCCACAGCAGAAGCGUUCACGUCGCGGCCCCCGUCAGAUUCUGGUGAGUCUGCGAAUUCUGCUGU [U36C A52G], the self-cleavage was 0.855.

On to GGGGGCCACAGCAGAAGCGUUCACGUCGCGGCCCCAGUCAGAUUCUGGUGAAUCUGCGAAUUCUGCUGG [U36A U69G], for which the self-cleavage amounted to 0.347.

GGGGGCCACAGCAGAAGCGUUCACGUCGCGGCCCCAGUCAGAUUCCGGUGAAUCUGCGAAUUCUGCUGU [U36A U46C]: the self-cleavage was 0.186.

In the case of GGGGGCCACAGCAGAAGCGUUCACGUCGCGGCCCCGGUCAGAUUCUUGUGAAUCUGCGAAUUCUGCUGU [U36G G47U], the self-cleavage was 0.148.

GGGGGCCACAGCAGAAGCGUUCACGUCGCGGCCCCCGUCAGAUUCUGGUGAAUCUGUGAAUUCUGCUGU [U36C C57U]: the self-cleavage was 0.277.

With GGGGGCCACAGCAGAAGCGUUCACGUCGCGGCCCCGGUCAGAUUUUGGUGAAUCUGCGAAUUCUGCUGU [U36G C45U], the self-cleavage worked out at 0.232.

Turning to GGGGGCCACAGCAGAAGCGUUCACGUCGCGGCCCCCGUAAGAUUCUGGUGAAUCUGCGAAUUCUGCUGU [U36C C39A], the self-cleavage came to 0.474.

Regarding GGGGGCCACAGCAGAAGCGUUCACGUCGCGGCCCCCGUUAGAUUCUGGUGAAUCUGCGAAUUCUGCUGU [U36C C39U], the self-cleavage worked out at 0.732.

On to GGGGGCCACAGCAGAAGCGUUCACGUCGCGGCCCCGGUCAGAUUCUGGUCAAUCUGCGAAUUCUGCUGU [U36G G50C], for which the self-cleavage stood at 0.231.

As to GGGGGCCACAGCAGAAGCGUUCACGUCGCGGCCCCGGUCAGAUUCUGGUAAAUCUGCGAAUUCUGCUGU [U36G G50A], the self-cleavage is 0.214.

On to GGGGGCCACAGCAGAAGCGUUCACGUCGCGGCCCCAGUCAGAUUCUGGUGAAUCUGCAAAUUCUGCUGU [U36A G58A], for which the self-cleavage was determined as 0.205.

For GGGGGCCACAGCAGAAGCGUUCACGUCGCGGCCCCCGUCAGAUUCUGGUGAAUCUGCGAAUUUUGCUGU [U36C C63U], the self-cleavage worked out at 0.856.

With GGGGGCCACAGCAGAAGCGUUCACGUCGCGGCCCCCGUCAGAUUCUGGUGAAUCUGCAAAUUCUGCUGU [U36C G58A], the self-cleavage amounted to 0.731.

GGGGGCCACAGCAGAAGCGUUCACGUCGCGGCCCCCGUCAGAUUCUGGUGAAUCUGCCAAUUCUGCUGU [U36C G58C]: the self-cleavage was found to be 0.834.

For GGGGGCCACAGCAGAAGCGUUCACGUCGCGGCCCCGGUCAGAUUCUGGAGAAUCUGCGAAUUCUGCUGU [U36G U49A], the self-cleavage stood at 0.237.

For GGGGGCCACAGCAGAAGCGUUCACGUCGCGGCCCCGGUCAGAUUCUGGGGAAUCUGCGAAUUCUGCUGU [U36G U49G], the self-cleavage was found to be 0.197.

As for GGGGGCCACAGCAGAAGCGUUCACGUCGCGGCCCCAGUCAGAUUCUGGUGAACCUGCGAAUUCUGCUGU [U36A U53C], the self-cleavage was determined as 0.181.

For GGGGGCCACAGCAGAAGCGUUCACGUCGCGGCCCCAGUCAGAUUCUGGUGAAUCUACGAAUUCUGCUGU [U36A G56A], the self-cleavage was 0.231.

As for GGGGGCCACAGCAGAAGCGUUCACGUCGCGGCCCCGGUCAGAUUCUGGUGAAUCUGAGAAUUCUGCUGU [U36G C57A], the self-cleavage was found to be 0.236.

As to GGGGGCCACAGCAGAAGCGUUCACGUCGCGGCCCCGGUCAGAUUCUGGUGAAUCUGUGAAUUCUGCUGU [U36G C57U], the self-cleavage was 0.184.

Turning to GGGGGCCACAGCAGAAGCGUUCACGUCGCGGCCCCAGUCAGAUUCUGGUGAAUCUGCGAAUUCUGCUUU [U36A G68U], the self-cleavage turned out to be 0.248.

As to GGGGGCCACAGCAGAAGCGUUCACGUCGCGGCCCCGGUCAGAUUCAGGUGAAUCUGCGAAUUCUGCUGU [U36G U46A], the self-cleavage was determined as 0.349.

On to GGGGGCCACAGCAGAAGCGUUCACGUCGCGGCCCCGGUCAGAUUCGGGUGAAUCUGCGAAUUCUGCUGU [U36G U46G], for which the self-cleavage amounted to 0.181.

For GGGGGCCACAGCAGAAGCGUUCACGUCGCGGCCCCCGUCAGAUUCUGGUGAAUCUGCGAAUUCAGCUGU [U36C U64A], the self-cleavage came to 0.713.
